± gives the half width of the 95% confidence interval.
Key:
[1] = folding stability dG unfold from trypsin proteolysis; higher = more stable
Experimental: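 Folding stability of de novo designed mini-proteins (<80 aa, no Cys; designed by TrROS, TrMRF, ProteinMPNN and the joint model) was measured by cDNA display proteolysis with trypsin and chymotrypsin. Each protease was used at 11 concentrations in a threefold dilution series plus a no-protease condition. K50 was inferred by Bayesian fitting of sequencing counts, and dG unfold was derived against a sequence-predicted unfolded-state K50 (Tsuboyama et al. method). Sequences shown include variable-length N-terminal GS-type padding (SAGGSAGG...) inside a display construct carrying a PA tag. Rows were kept only if the AF2 dimer inter-PAE was >15, to exclude likely homo-oligomers.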

[2] = folding stability dG unfold (combined trypsin and chymotrypsin); higher = more stable
Summary of the method: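 Unfolding free energy was derived, per protease or combined, against a sequence-predicted unfolded-state K50 and a shared folded-state K50, starting from K50 inferred by Bayesian fitting of sequencing counts. Digestion with trypsin and chymotrypsin was carried out on designed mini-proteins under 80 residues without cysteine in a PA-tagged cDNA display construct. Only designs with AlphaFold2 dimer inter-PAE above 15 were kept.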

Sequence	folding stability dG unfold [1]	folding stability dG unfold [2]
SAGGSAGGMKPTVEVRPVPPSARMVVTITLPGSGKKVTIPVPDAPAPEEPERVIEEALAYVKTSSAGGSAGG [r6_331_JUSTAS]	-0.714 ± 0.47 kcal/mol	< -1 kcal/mol
SAGGSAGGSAGMEIPEDWTVVEESEVPDERLVTVHNPKTGELYVVTQPPATGEETVERYLSAGGSAGGSAGG [r11_896_JUSTAS]	0.0248 ± 0.2 kcal/mol	< -1 kcal/mol
SAGGSAGGSGMEKKTITITIPVPPDRDVTEEEIKETLKPLGYEEVDIEEIKPAGNSYTVTAVISAGGSAGGS [r20_79_JUSTAS]	0.212 ± 0.13 kcal/mol	-0.427 ± 0.52 kcal/mol
SAGGSAGGSMTETVVLPYPLPPGVPFHIELPDGSKSVSADPETGTLTVLVKKGTEEAVKEALASAGGSAGGS [r12_476_JUSTAS]	-0.508 ± 0.12 kcal/mol	-0.989 ± 0.27 kcal/mol
SAGGSAGGSAGGKEIPLDEVKDIQPSNDKWYVVFPGKPQRFPPDDIPIPPGKPIRIYPLSAGGSAGGSAGGS [r10_665_TrROS]	0.338 ± 0.058 kcal/mol	-0.154 ± 0.24 kcal/mol
SMSPSETETTTYTRTIPFPKSNPEQAKAEAEKEVRAELEAKGLKIDIPITIEWENDTVTVTIPISVTPPLSA [r9_889_JUSTAS]	0.594 ± 0.13 kcal/mol	-0.144 ± 0.29 kcal/mol
SAGGSAGGSSMPPGWSVTSETVVESIIETPNGPIIKVTTSKTTVTPPNGPPSTYTTTSEDPLGSAGGSAGGS [r12_544_JUSTAS]	-0.314 ± 0.13 kcal/mol	< -1 kcal/mol
SAGGAMPKTITVTDPTSSREEAEALLASPERLEAIAEEIKPEFPGVDLTVTVSSDPATGTLTITIVSSAGGS [r16_320_JUSTAS]	0.289 ± 0.072 kcal/mol	< -1 kcal/mol
SAGGRGQELTIPNGAPIEDIEELAKKDPDYQVKITEIKMQKPKKDPNGKKRPVPMWMKITLYPAGEKSAGGS [r8_172_TrROS]	0.116 ± 0.27 kcal/mol	< -1 kcal/mol
SAGGSAGGSAGGYKVKVYNPENGKPQEIPLPPNDIPELLDKLPNGPWWIRVKDPDRWIPLSAGGSAGGSAGG [r7_188_TrROS]	-1.05 ± 0.51 kcal/mol	-0.562 ± 0.57 kcal/mol
SAMEVTVTPLPDGTTRVTLPDGVEITHPAPGTGEPVLVEVTEVPGTGTYRITIRSPAGGEELRELLVPVSAG [r14_975_JUSTAS]	0.986 ± 0.03 kcal/mol	0.443 ± 0.091 kcal/mol
SAGGMPIKPKVELEPLEDAYLVRVRFEAPDRPIEIRRAFASFPDAVREAEEIARFLEEAEIPSPEGGSAGGS [r16_24_TrMRF]	-0.682 ± 0.66 kcal/mol	< -1 kcal/mol
SAGGSAGGSAGTVTVDPEKGVVYVPLPEPISPEEVIEKRKEPELDVKILSVGENVAVILVSAGGSAGGSAGG [r17_323_JUSTAS]	0.493 ± 0.027 kcal/mol	-0.218 ± 0.11 kcal/mol
SLEIAKELGFPIKRFEPTEMDPDNGRQKWEAYIPMPNRTVRVDIDIRYEPDPNGKRQPKIQIDSIEFMPPSA [r9_613_TrROS]	0.392 ± 0.12 kcal/mol	-0.242 ± 0.23 kcal/mol
SAGGSAPPASAPGVVEEVEAEVPVDVPEVARLTGRPPRPGERYRVRVVRRVYPDGRVETDVYIEPGSAGGSA [r15_91_TrMRF]	0.328 ± 0.064 kcal/mol	-0.252 ± 0.14 kcal/mol
SAGGSAGGSAGPKWKQITIPMEPGQSVNEIADEIKDELGPGKRVHVSMHENGWMTIYVRKSAGGSAGGSAGG [r17_20_TrROS]	-0.484 ± 0.23 kcal/mol	< -1 kcal/mol
SAGGKPDIKDIEIDDVEYDPNEGYFRYEVEIKWPGGKERPIEVPMKYEDGRMTPEDIRKMAKKLIKNSAGGS [r16_221_TrROS]	0.423 ± 0.15 kcal/mol	< -1 kcal/mol
SAGGSAGGSAGGPMSNVVEEVVSVEVTNPGLPDSRFVTNPEPGVPLPVPRTVPVVIVLRASAGGSAGGSAGG [r11_257_JUSTAS]	-0.602 ± 0.33 kcal/mol	< -1 kcal/mol
SAGGSAGGSMKTALLDDGKTIPLPEEELPPDAGVEEVAKKIPPEAKKLTVKEPDGSTKTVPLASAGGSAGGS [r20_161_JUSTAS]	-0.0521 ± 0.2 kcal/mol	< -1 kcal/mol
SAGGSAGGSMKPVLTIPASVTDPEVAIAILREAKAALPEGTQLEVVMPGGAEEELKKAGLILKSAGGSAGGS [r12_992_JUSTAS]	-1.4 ± 0.71 kcal/mol	< -1 kcal/mol
MKKTIPFPPSHPDLSPEEVAERLRERFLSPEESITVTTDPATGTTTVTATRGNVTTVATLSPAGTVTVTGAS [r1_131_JUSTAS]	-0.0831 ± 0.14 kcal/mol	< -1 kcal/mol
SAGGSAGGSSSVMTVTVEYPTPAPPVVRRETVEVPDPDGSLSEEELKEKYSPPDAVVTEVVRESAGGSAGGS [r12_611_JUSTAS]	-1.07 ± 0.34 kcal/mol	< -1 kcal/mol
SAGGSAGGSQKIEITKVEPERGPNGRPYHRVNIEIVIPDGKPRKFDFYFDDPEDLENMTIELPSAGGSAGGS [r20_130_TrROS]	-0.861 ± 0.17 kcal/mol	-0.88 ± 0.19 kcal/mol
LKITLPGGAEVTEIDDIKVSSDGYIELNVRVRNPDNDVEVPVPVYIPVPPVPPVPVKVSFIPGTGKLVVDDS [r1_411_TrMRF]	0.0956 ± 0.11 kcal/mol	< -1 kcal/mol
SAGGSAGGSAGGRIRLPNMPPGHDMEIKSIKVPEPGPVKLTIEPPGSDKKQERYMPPDDISAGGSAGGSAGG [r7_342_TrROS]	0.0711 ± 0.23 kcal/mol	< -1 kcal/mol
